Test: in vivo
Set-up: species or system mice
Conditions: male, athymic nu/nu, mouse, iv, 0.3 nmol, total radioactivity
Experimental: Mice were euthanized at 10 and 60 min p.i. […] Blood, organs, and femur-containing femur marrow were collected and counted as described previously. The uptake was expressed as percentage of injected activity per gram of tissue (%IA/g).

Molecule `C[C@@H](O)[C@H](NC(=O)[C@@H]1CSSC[C@H](NC(=O)[C@@H](Cc2ccccc2)NC(=O)CN2CCN(CC(=O)O)CCN(CC(=O)O)CCN(CC(=O)O)CC2)C(=O)N[C@@H](Cc2ccc(O)cc2)C(=O)N[C@H](Cc2c[nH]c3ccccc23)C(=O)N[C@@H](CCCCN)C(=O)N[C@@H]([C@@H](C)O)C(=O)N1)C(=O)O` [^213Bi-DOTATATE, metal not drawn] has a tissue uptake at 10 min (renal uptake) of 30.8 ± 5.8 %ID/g, a tissue uptake at 1 h (renal uptake) of 18.4 ± 1.8 %ID/g and a tissue uptake at 1 h (stomach uptake) of 1.6 ± 0.5 %ID/g.

Source: article PMC5118228 (EJNMMI Research, 2016)
